Here are results for 20 molecules from patent publication US20260125454A1 (SHANGHAI JUNSHI BIOSCIENCES, published 2026).

In the assay the target is T1, Biotin-huCGRPaSA (human, not fully specified; biotin (position not given)).
T1 construct: exact construct ('aSA') not explained; also called Biotin CGRPaSA; full-length (1-37) CGRP
T1 peptide: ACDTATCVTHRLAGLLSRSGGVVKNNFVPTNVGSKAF
Nature of the assay: ELISA, supernatant; relative to chimeric C245. Put shortly: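 Antibodies, including reference chimeric C245, titrated 2.5-fold from 1000 ng/mL and incubated 60 min at 37°C on wells coated with 1.0 μg/mL biotin-CGRPaSA and blocked with 2% BSA. Bound IgG detected with HRP anti-human Fc antibody and TMB, acid-stopped, absorbance 450/620 nm.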
A general note: ELISA stands for enzyme-linked immunosorbent assay.

B1: hu199 (antibody, V domains shown)
VH: QVQLVQSGAEVKKPGASVKVSCKASGYTFTDYNMHWVRQAPGQGLEWMGYIYPYNGHTVYNQKFRNRVTMTVDTSSSTAYMELRSLRSDDTAVYYCAKEGLGGYWGQGTLVTVSS
VL: DIQLTQSPSFLSASVGDRVTITCKASQNIDYDGYAYLNWYQQKPGKAPKVLIYSVFNLESGVPSRFSGSGSGTEFTLTISSLQPEDFATYYCQQSNEFPYTFGQGTKLEIK
notes: 3H10 HC-1/1A2 LC2-4
As to B1, the “Relative binding activity, %” value came out at 41%.

B2: hu218 (antibody, V domains shown)
VH: QVQLVQSGAEVKKPGASVKVSCKASGYTFTDYNMHWVRQAPGQGLEWMGYIYPYNGHTVYNQKFRNRVTLTVDTSSSTAYMELRSLRSDDTAVYYCAREGLGGYWGQGTLVTVSS
VL: DVQLTQSPSFLSASVGDRVTITCQASQNIDGNTYMNWYQQKPGKAPKVLIYSIFNLESGVPSRFSGSGSGTEFTLTISSLQPEDFATYYCQQSNDYPYTFGQGTKLEIK
notes: 3H10 HC-2/2B8 LC2-2
For B2, the “Relative binding activity, %” value is 24%.

B3: hu21 (antibody, V domains shown)
VH: QVQLVQSGAEVKKPGASVKVSCKASGYTFTDYNMHWVRQAPGQRLEWMGYIFPYNGVAVYNRKFRSRVTLTVDTSSSTAYMELSSLRSEDTAVYYCAREGLGGYWGQGTLVTVSS
VL: DIVLTQSPDSLAVSLGERATINCKASQNIDFDGYAYMNWYQHKPGQPPKVLIYSVFNLESGVPDRFSGSGSGTDFTLTISSLQAEDVAVYYCQQSHEVPYTFGQGTKLEIK
notes: 1B2 HC-2/1F5 LC1-4
Regarding B3, the “Relative binding activity, %” value is 33%.

B4: hu36 (antibody, V domains shown)
VH: QVQLVQSGAEVKKPGASVKVSCKASGYTFIDFNMHWVRQAPGQRLEWMGYIYPYNGDVVYNQNFTNRVTLTVDTSSSTAYMELSSLRSEDTAVYYCAREGLGGYWGQGTLVTVSS
VL: DVQLTQSPSFLSASVGDRVTITCQASQNIDGNTYMNWYQQKPGKAPKVLIYSIFNLESGVPSRFSGSGSGTEFTLTISSLQPEDFATYYCQQSNDYPYTFGQGTKLEIK
notes: 1F5 HC-1/2B8 LC2-2
Take B4: the “Relative binding activity, %” value came to 40%.

B5: hu23 (antibody, V domains shown)
VH: QVQLVQSGAEVKKPGASVKVSCKASGYTFTDYNMHWVRQAPGQRLEWMGYIFPYNGVAVYNRKFRSRVTLTVDTSSSTAYMELSSLRSEDTAVYYCAREGLGGYWGQGTLVTVSS
VL: DVQLTQSPSFLSASVGDRVTITCQASQNIDGNTYMNWYQQKPGKAPKVLIYSIFNLESGVPSRFSGSGSGTEFTLTISSLQPEDFATYYCQQSNDYPYTFGQGTKLEIK
notes: 1B2 HC-2/2B8 LC2-2
Take B5: the “Relative binding activity, %” value stood at 17%.

B6: hu127 (antibody, V domains shown)
VH: QVQLVQSGAEVKKPGASVKVSCKASGYTFTDYNMHWVRQAPGQGLEWMGNIYPYNGGTVYNQKFNNRVTLTVDTSSSTAYMELRSLRSDDTAVYYCAREGLGGYWGQGTLVTVSS
VL: DVQLTQSPSFLSASVGDRVTITCQASQNIDGNTYMNWYQQKPGKAPKVLIYSIFNLESGVPSRFSGSGSGTEFTLTISSLQPEDFATYYCQQSNDYPYTFGQGTKLEIK
notes: 2B8 HC1-2/2B8 LC2-2
In the case of B6, the “Relative binding activity, %” value worked out at 24%.

B7: hu179 (antibody, V domains shown)
VH: QVQLVQSGAEVKKPGASVKVSCKASGYTFTDYNMHWVRQAPGQGLEWMGYISPYNGGTAYNQKFKFRVTLTVDTSSSTAYMELSRLRSDDTVVYYCAREGLGGYWGQGTLVTVSS
VL: DVQLTQSPSFLSASVGDRVTITCQASQNIDGNTYMNWYQQKPGKAPKVLIYSIFNLESGVPSRFSGSGSGTEFTLTISSLQPEDFATYYCQQSNDYPYTFGQGTKLEIK
notes: 3E5 HC-3/2B8 LC2-2
As to B7, the “Relative binding activity, %” value was found to be 77%.

B8: hu166 (antibody, V domains shown)
VH: QVQLVQSGAEVKKPGASVKVSCKASGYTFTDYNMHWVRQAPGQRLEWMGYISPYNGGTAYNQKFKFRVTLTVDTSSSTAYMELSSLRSEDTAVYYCAREGLGGYWGQGTLVTVSS
VL: DVQLTQSPSFLSASVGDRVTITCQASQNIDGNTYMNWYQQKPGKAPKVLIYSIFNLESGVPSRFSGSGSGTEFTLTISSLQPEDFATYYCQQSNDYPYTFGQGTKLEIK
notes: 3E5 HC-2/2B8 LC2-2
Take B8: the “Relative binding activity, %” value amounted to 19%.

B9: hu140 (antibody, V domains shown)
VH: QVQLVQSGAEVKKPGASVKVSCKASGYTFTDYNMHWVRQAPGQGLEWMGNIYPYNAGTVYNQKFNNRVTLTVDTSSSTAYMELSRLRSDDTAVYYCAREGLGGYWGQGTLVTVSS
VL: DVQLTQSPSFLSASVGDRVTITCQASQNIDGNTYMNWYQQKPGKAPKVLIYSIFNLESGVPSRFSGSGSGTEFTLTISSLQPEDFATYYCQQSNDYPYTFGQGTKLEIK
notes: 2B8 HC1-3/2B8 LC2-2
On to B9, for which the “Relative binding activity, %” value is 47%.

B10: hu101 (antibody, V domains shown)
VH: QVQLVQSGAEVKKPGASVKVSCKASGYTFTDYNMHWVRQAPGQRLEWMGYVYPYNGGSAYNQKFKSRVTLTVDTSSSTAYMELSSLRSEDTAVYYCAREGLGGYWGQGTLVTVSS
VL: DVQLTQSPSFLSASVGDRVTITCQASQNIDGNTYMNWYQQKPGKAPKVLIYSIFNLESGVPSRFSGSGSGTEFTLTISSLQPEDFATYYCQQSNDYPYTFGQGTKLEIK
notes: 2A2 HC-1/2B8 LC2-2
Take B10: the “Relative binding activity, %” value worked out at 48%.

B11: hu153 (antibody, V domains shown)
VH: QVQLVQSGAEVKKPGASVKVSCKTSGYTFTDYNMHWVRQAPGQRLEWMGYISPYNGGTAYNQKFKFRVTLTVDTSSSTAYMELSSLRSEDTAVYYCAREGLGGYWGQGTLVTVSS
VL: DVQLTQSPSFLSASVGDRVTITCQASQNIDGNTYMNWYQQKPGKAPKVLIYSIFNLESGVPSRFSGSGSGTEFTLTISSLQPEDFATYYCQQSNDYPYTFGQGTKLEIK
notes: 3E5 HC-1/2B8 LC2-2
As for B11, the “Relative binding activity, %” value worked out at 56%.

B12: hu205 (antibody, V domains shown)
VH: QVQLVQSGAEVKKPGASVKVSCKASGYTFTDYNMHWVRQAPGQGLEWMGYIYPYNGHTVYNQKFRNRVTMTVDTSSSTAYMELRSLRSDDTAVYYCAKEGLGGYWGQGTLVTVSS
VL: DVQLTQSPSFLSASVGDRVTITCQASQNIDGNTYMNWYQQKPGKAPKVLIYSIFNLESGVPSRFSGSGSGTEFTLTISSLQPEDFATYYCQQSNDYPYTFGQGTKLEIK
notes: 3H10 HC-1/2B8 LC2-2
In the case of B12, the “Relative binding activity, %” value is 26%.

B13: hu221 (antibody, V domains shown)
VH: QVQLVQSGAEVKKPGASVKVSCKASGYTFTDYNMHWVRQAPGQGLEWMGYIYPYNGHTVYNQKFRNRVTLTVDTSSSTAYMELRSLRSDDTAVYYCAREGLGGYWGQGTLVTVSS
VL: DIQLTQSPSSLSASVGDRVTITCKASQNIDYGGYSYMNWYQQKPGKAPKVLIYSVFNLESGVPSRFSGSGSGTDFTLTISSLQPEDFATYYCQQSNEAPYTFGQGTKLEIK
notes: 3H10 HC-2/3H10 LC2-2
With B13, the “Relative binding activity, %” value amounted to 24%.

B14: hu192 (antibody, V domains shown)
VH: QVQLVQSGAEVKKPGASVKVSCKTSGYTFTDYNMHWVRQAPGQRLEWMGYISPYNAGTAYNQKFKFRVTLTVDTSSSTAYMELSSLRSEDTAVYYCAREGLGGYWGQGTLVTVSS
VL: DVQLTQSPSFLSASVGDRVTITCQASQNIDGNTYMNWYQQKPGKAPKVLIYSIFNLESGVPSRFSGSGSGTEFTLTISSLQPEDFATYYCQQSNDYPYTFGQGTKLEIK
notes: 3E5 HC-4/2B8 LC2-2
With B14, the “Relative binding activity, %” value was found to be 15%.

B15: hu49 (antibody, V domains shown)
VH: QVQLVQSGAEVKKPGASVKVSCKASGYTFTDFNMHWVRQAPGQRLEWMGYIYPYNGDVVYNQNFTNRVTLTVDTSSSTAYMELSSLRSEDTAVYYCAREGLGGYWGQGTLVTVSS
VL: DVQLTQSPSFLSASVGDRVTITCQASQNIDGNTYMNWYQQKPGKAPKVLIYSIFNLESGVPSRFSGSGSGTEFTLTISSLQPEDFATYYCQQSNDYPYTFGQGTKLEIK
notes: 1F5 HC-2/2B8 LC2-2
For the molecule B15, the “Relative binding activity, %” value amounted to 60%.

B16: hu114 (antibody, V domains shown)
VH: QVQLVQSGAEVKKPGASVKVSCKASGYTFTDYNMHWVRQAPGQGLEWMGNIYPYNGGTVYNQKFNNRVTLTVDTSSSTAYMELSRLRSDDTAVYYCAREGLGGYWGQGTLVTVSS
VL: DVQLTQSPSFLSASVGDRVTITCQASQNIDGNTYMNWYQQKPGKAPKVLIYSIFNLESGVPSRFSGSGSGTEFTLTISSLQPEDFATYYCQQSNDYPYTFGQGTKLEIK
notes: 2B8 HC1-1/2B8 LC2-2
Regarding B16, the “Relative binding activity, %” value was 41%.

B17: hu10 (antibody, V domains shown)
VH: QVQLVQSGAEVKKPGASVKVSCKASGYTFTDYNMHWVRQAPGQGLEWMGYIFPYNGVAVYNRKFRSRVTLTIDTSSSTAYMELRSLRSDDTAVYYCAREGLGGYWGQGTLVTVSS
VL: DVQLTQSPSFLSASVGDRVTITCQASQNIDGNTYMNWYQQKPGKAPKVLIYSIFNLESGVPSRFSGSGSGTEFTLTISSLQPEDFATYYCQQSNDYPYTFGQGTKLEIK
notes: 1B2 HC-1/2B8 LC2-2
Regarding B17, the “Relative binding activity, %” value worked out at 14%.

B18: hu208 (antibody, V domains shown)
VH: QVQLVQSGAEVKKPGASVKVSCKASGYTFTDYNMHWVRQAPGQGLEWMGYIYPYNGHTVYNQKFRNRVTMTVDTSSSTAYMELRSLRSDDTAVYYCAKEGLGGYWGQGTLVTVSS
VL: DIQLTQSPSSLSASVGDRVTITCKASQNIDYGGYSYMNWYQQKPGKAPKVLIYSVFNLESGVPSRFSGSGSGTDFTLTISSLQPEDFATYYCQQSNEAPYTFGQGTKLEIK
notes: 3H10 HC-1/3H10 LC2-2
Regarding B18, the “Relative binding activity, %” value turned out to be 15%.

B19: hu88 (antibody, V domains shown)
VH: QVQLVQSGAEVKKPGASVKVSCKASGYTFIDFNMHWVRQAPGQRLEWMGYIYPYNADVVYNQDFTNRVTLTVDTSSSTAYMELSSLRSEDTAVYYCAREGLGGYWGQGTLVTVSS
VL: DVQLTQSPSFLSASVGDRVTITCQASQNIDGNTYMNWYQQKPGKAPKVLIYSIFNLESGVPSRFSGSGSGTEFTLTISSLQPEDFATYYCQQSNDYPYTFGQGTKLEIK
notes: 1F5 HC-5/2B8 LC2-2
Turning to B19, the “Relative binding activity, %” value is 93%.

B20: hu62 (antibody, V domains shown)
VH: QVQLVQSGAEVKKPGASVKVSCKASGYTFTDFNMHWVRQAPGQGLEWMGYIYPYNGDVVYNQNFTNRVTLTVDTSSSTAYMELRSLRSDDTAVYYCAREGLGGYWGQGTLVTVSS
VL: DVQLTQSPSFLSASVGDRVTITCQASQNIDGNTYMNWYQQKPGKAPKVLIYSIFNLESGVPSRFSGSGSGTEFTLTISSLQPEDFATYYCQQSNDYPYTFGQGTKLEIK
notes: 1F5 HC-3/2B8 LC2-2
For the molecule B20, the “Relative binding activity, %” value came to 15%.
